We go through three molecules from paper PMC11093599 (The Journal of Clinical Investigation, 2024).

One series has as its target T1, AARS1^455 (Homo sapiens, UniProt P49588).
T1 construct: catalytic domain, residues 1-455, purified recombinant; tags and host only in supplement
T1 sequence (P49588 1-455): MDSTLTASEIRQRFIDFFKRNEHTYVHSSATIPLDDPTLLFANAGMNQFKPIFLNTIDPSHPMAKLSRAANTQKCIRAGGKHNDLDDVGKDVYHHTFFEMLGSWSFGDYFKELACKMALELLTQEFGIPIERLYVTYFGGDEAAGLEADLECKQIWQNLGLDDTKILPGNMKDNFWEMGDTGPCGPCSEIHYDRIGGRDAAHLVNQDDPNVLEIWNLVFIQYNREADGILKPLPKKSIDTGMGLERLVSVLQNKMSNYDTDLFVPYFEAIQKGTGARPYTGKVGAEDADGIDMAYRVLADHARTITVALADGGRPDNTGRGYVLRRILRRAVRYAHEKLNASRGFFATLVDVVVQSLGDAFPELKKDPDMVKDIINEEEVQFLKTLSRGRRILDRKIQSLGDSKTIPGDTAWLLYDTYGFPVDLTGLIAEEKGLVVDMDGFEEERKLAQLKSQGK
Briefly: in vitro histone lactylation, pan-Klac immunoblot / mass spectrometry. In kind it is biochemical. Particulars: lactate and ATP present; dose-dependent; construct in Supplemental Figure 1F not told.

In the next series the target is YAP (1-291) (UniProt P46937 1-291). Briefly: EMSA; YAP alone; 10 mM Tris-HCl pH 7.5, 50 mM KCl, 1 mM DTT, 2% glycerol, 25 C, 1 h. The note with it: protein: recombinant; tags: MBP.
The target of the next series is TEAD1;YAP (1-291) (human?;human?, UniProt P28347;P46937 1-426;1-291, |). Briefly: EMSA; supershift of probe by YAP-TEAD1; 10 mM Tris-HCl pH 7.5, 50 mM KCl, 1 mM DTT, 2% glycerol, 25 C, 1 h. Particulars: protein: recombinant;recombinant; (HS-TEAD1 in pull-down); copies: 1;1.
In a further series the target is TEAD1 (UniProt P28347 1-426). Kind of series: EMSA; 10 mM Tris-HCl pH 7.5, 50 mM KCl, 1 mM DTT, 2% glycerol, 25 C, 1 h. Particulars: protein: recombinant; (HS-TEAD1 in pull-down).
Sequence of TEAD1 (P28347 whole entry): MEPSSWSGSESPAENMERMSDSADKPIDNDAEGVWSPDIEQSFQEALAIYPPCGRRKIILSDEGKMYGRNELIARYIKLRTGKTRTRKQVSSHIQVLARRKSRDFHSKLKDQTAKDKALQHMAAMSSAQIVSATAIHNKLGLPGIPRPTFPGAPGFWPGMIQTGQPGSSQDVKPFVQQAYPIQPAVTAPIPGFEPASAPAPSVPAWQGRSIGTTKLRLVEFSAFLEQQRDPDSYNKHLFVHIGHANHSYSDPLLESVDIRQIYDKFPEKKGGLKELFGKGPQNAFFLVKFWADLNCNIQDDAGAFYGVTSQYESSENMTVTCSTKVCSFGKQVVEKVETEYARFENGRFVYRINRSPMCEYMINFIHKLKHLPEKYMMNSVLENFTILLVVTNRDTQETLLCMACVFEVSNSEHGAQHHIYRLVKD

Consider `Nc1ncnc2c1ncn2[C@@H]1O[C@H](COP(=O)(O)O)[C@@H](O)[C@H]1O` [AMP], for which the inhibition result against AARS1^455 is “inclusion of PPi, AMP, and the synthetic lactyl-AMS”.

For the molecule `O=P(O)(O)OP(=O)(O)O` [PPi], at AARS1^455, the inhibition result is “inclusion of PPi, AMP, and the synthetic lactyl-AMS”.

B1: AARS1 promoter probe (dsDNA)
DNA 1: CAGACAGGGCCTCGCTCTGTCGCCCAAGGAATGCAGTGTCACGATCAGGGCTCACTGCAG
DNA 2: CTGCAGTGAGCCCTGATCGTGACACTGCATTCCTTGGGCGACAGAGCGAGGCCCTGTCTG
In the case of B1, the binding result is on record as “no binding” with YAP (1-291), “binds” with TEAD1;YAP (1-291) and “binds” with TEAD1.
